Assay results as given in PMC9254666.

Biological target: p53 (Homo sapiens), P04637
Test: ELISA
Details: remark: other sources report otherwise

p53 (Homo sapiens), P04637, sequence (P04637 whole entry): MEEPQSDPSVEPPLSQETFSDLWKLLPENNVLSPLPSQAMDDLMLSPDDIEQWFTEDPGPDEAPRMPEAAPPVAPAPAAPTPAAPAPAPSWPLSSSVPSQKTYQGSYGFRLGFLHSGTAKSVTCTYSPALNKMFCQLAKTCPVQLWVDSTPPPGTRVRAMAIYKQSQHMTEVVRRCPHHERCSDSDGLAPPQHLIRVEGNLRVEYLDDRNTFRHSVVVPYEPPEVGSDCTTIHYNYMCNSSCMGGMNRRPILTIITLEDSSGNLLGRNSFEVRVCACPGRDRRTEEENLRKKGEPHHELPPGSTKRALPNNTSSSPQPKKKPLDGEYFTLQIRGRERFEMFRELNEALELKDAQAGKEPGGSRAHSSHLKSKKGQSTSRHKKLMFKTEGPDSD

B1: HDMX, O15151 (protein)
chain: MTSFSTSAQCSTSDSACRISPGQINQVRPKLPLLKILHAAGAQGEMFTVKEVMHYLGQYIMVKQLYDQQEQHMVYCGGDLLGELLGRQSFSVKDPSPLYDMLRKNLVTLATATTDAAQTLALAQDHSMDIPSQDQLKQSAEESSTSRKRTTEDDIPTLPTSEHKCIHSREDEDLIENLAQDETSRLDLGFEEWDVAGLPWWFLGNLRSNYTPRSNGSTDLQTNQDVGTAIVSDTTDDLWFLNESVSEQLGVGIKVEAADTEQTSEEVGKVSDKKVIEVGKNDDLEDSKSLSDDTDVEVTSEDEWQCTECKKFNSPSKRYCFRCWALRKDWYSDCSKLTHSLSTSDITAIPEKENEGNDVPDCRRTISAPVVRPKDAYIKKENSKLFDPCNSVEFLDLAHSSESQETISSMGEQLDNLSEQRTDTENMEDCQNLLKPCSLCEKRPRDGNIIHGRTGHLVTCFHCARRLKKAGASCPICKKEIQLVIKVFIA
  Kd: 4.4 nM
